Data: article PMC5416816
Where two headings read alike, the source gives them in different places.

Columns and labels:
TIA-1 RRM23K [1] = target: T1, TIA-1 RRM23K (UniProt P31483-2 93-274); assay: ITC
T1 sequence: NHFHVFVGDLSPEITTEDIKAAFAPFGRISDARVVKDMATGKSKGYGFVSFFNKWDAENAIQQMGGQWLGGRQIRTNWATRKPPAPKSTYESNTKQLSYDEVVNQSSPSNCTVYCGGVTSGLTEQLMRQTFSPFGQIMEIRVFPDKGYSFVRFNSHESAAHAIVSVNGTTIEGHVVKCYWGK

TIA-1 RRM23K [2] = target: T1, TIA-1 RRM23K; assay: fluorescence anisotropy
TIA-1 RRM23L [3] = target: T2, TIA-1 RRM23L (UniProt P31483-2 80-292); assay: NMR
T2 sequence: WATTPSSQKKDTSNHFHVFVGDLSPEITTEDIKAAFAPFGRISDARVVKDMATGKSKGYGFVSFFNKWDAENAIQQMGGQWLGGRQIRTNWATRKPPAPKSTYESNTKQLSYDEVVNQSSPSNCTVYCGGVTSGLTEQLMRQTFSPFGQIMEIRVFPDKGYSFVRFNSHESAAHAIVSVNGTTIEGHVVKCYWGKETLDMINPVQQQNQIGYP

TIA-1 RRM2S = target: T3, TIA-1 RRM2S (UniProt P31483-2 95-184); assay: NMR
T3 sequence: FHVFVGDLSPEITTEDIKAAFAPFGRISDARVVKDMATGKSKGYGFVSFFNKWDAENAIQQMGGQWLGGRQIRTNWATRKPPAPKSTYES

TIA-1 RRM23S = target: T4, TIA-1 RRM23S (UniProt P31483-2 94-272); assay: fluorescence anisotropy
T4 sequence: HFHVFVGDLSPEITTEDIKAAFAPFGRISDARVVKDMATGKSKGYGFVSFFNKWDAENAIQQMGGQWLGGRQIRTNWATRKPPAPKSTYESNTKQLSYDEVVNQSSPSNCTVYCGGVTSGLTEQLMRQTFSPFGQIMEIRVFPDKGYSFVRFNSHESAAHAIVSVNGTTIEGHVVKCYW

TIA-1 RRM23L [4] = target: T2, TIA-1 RRM23L; assay: fluorescence anisotropy
TIA-1 RRM2L = target: T5, TIA-1 RRM2L (UniProt P31483-2 80-188); assay: fluorescence anisotropy
T5 sequence: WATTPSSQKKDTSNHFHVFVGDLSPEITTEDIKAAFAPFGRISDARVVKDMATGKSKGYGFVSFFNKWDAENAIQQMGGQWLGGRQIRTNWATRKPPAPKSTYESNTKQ

TIA-1 RRM23L [5] = target: T2, TIA-1 RRM23L; assay: NMR; remark: listed apart in the source

B1: CU-rich RNA (unlabeled) (ssRNA)
RNA: ACUCCUUUUU
TIA-1 RRM23K [1]
  Kd: 70 ± 3 nM

B2: CT-rich DNA (ssDNA)
DNA: ACTCCTTTTT
TIA-1 RRM23K [2]
  Kd: 30 ± 3 nM

B3: PROXYL TC-rich DNA (ssDNA)
DNA: TTTTTACTCC
modifications: 5' thiol C6 coupled to PROXYL
TIA-1 RRM23L [3]
  binding result: binds

B4: TC-rich DNA (ssDNA)
DNA: TTTTTACTCC
TIA-1 RRM23K [2]
  Kd: 8 ± 1 nM

B5: UC-rich RNA (unlabeled) (ssRNA)
RNA: UUUUUACUCC
TIA-1 RRM23K [1]
  Kd: 12 ± 2 nM

B6: TTTTT DNA (ssDNA)
DNA: TTTTT
TIA-1 RRM2S
  binding result: binds

B7: UC-rich RNA (ssRNA)
RNA: UUUUUACUCC
TIA-1 RRM23K [2]
  Kd: 5 ± 0.3 nM

B8: CU-rich RNA (ssRNA)
RNA: ACUCCUUUUU
TIA-1 RRM23S
  Kd: 6600 ± 700 nM
TIA-1 RRM23K [2]
  Kd: 130 ± 10 nM
TIA-1 RRM23L [4]
  Kd: 130 ± 7 nM
TIA-1 RRM2L
  Kd: 9100 ± 2000 nM

B9: 5'thiol TC-rich DNA (ssDNA)
DNA: TTTTTACTCC
modifications: 5' thiol C6 S-S
TIA-1 RRM23L [5]
  binding result: binds
